Measured values from patent publication US20230073034A1 (APRILBIO, published 2023).
One block for each binder: values may come before it.

Legend:
[1] = biological target: T1, human serum albumin (HSA) (human, UniProt P02768 25-609); experiment: ELISA, HSA coated at 1 µg/ml, HRP goat anti-human Fd detection
Protocol: After blocking for 2 hours, washing was performed by repeatedly performing a process of completely removing the added buffer, adding each 300 μl of a buffer (PBS-T) containing 0.1% tween-20 PBS (pH 7.4), and then removing the buffer 3 times in total. After removing water remaining after the washing, the respective antibodies were serially diluted 10 folds at concentrations decreasing from 100 nM to 1.0×10⁻⁴ nM in a PBS pH 7.4 buffer (0.3% PBA) containing 0.3% bovine serum albumin and 0.1% tween-20, and each 100 μl of the diluted antibody samples were added to each well to be allowed to react at room temperature for 2 hours. After washing in the same manner as described above, HRP-conjugated goat anti-human Fd antibodies (Southern Biotechnology, Birmingham, Ala.) were diluted with a 0.3% PBA buffer in 1:4,000, and each 100 μl of the diluted antibody samples were added to each well to then be allowed to react at room temperature for 1 hour. To assess antigen-specific binding of the antibodies reacting after the washing, a TMB substrate (BD Bioscience, Franklin Lakes, N.J.) was added and reacted, and the absorbance was measured using a microplate spectrophotometer at A450 nm.
(§1) HRP-conjugated goat anti-human Fd antibodies were used as secondary antibodies.

[2] = biological target: T2, recombinant human TNF-α protein (human, UniProt P01375 77-233); experiment: ELISA, recombinant human TNF-α coated at 1 µg/ml, HRP goat anti-human Fd detection
T2 construct: also called soluble TNF-α; recombinant soluble TNF-α protein
Protocol: After washing in the same manner as described above, HRP-conjugated goat anti-human Fd antibodies (Southern Biotechnology, Birmingham, Ala.) were diluted with a 0.3% PBA buffer in 1:4,000, and each 100 μl of the diluted antibody samples were added to each well to then be allowed to react at room temperature for 1 hour. To assess antigen-specific binding of the antibodies reacting after the washing, a TMB substrate (BD Bioscience, Franklin Lakes, N.J.) was added and reacted, and the absorbance was measured using a microplate spectrophotometer at A450 nm.
as §1

[3] = biological target: T2, recombinant human TNF-α protein; experiment: cell-based or functional assay
[4] = biological target: T3, cell membrane CD40L expressed on D1.1 cells (UniProt P29965 1-261, limits assumed); experiment: cell-based or functional assay
T3 sequence (looked up): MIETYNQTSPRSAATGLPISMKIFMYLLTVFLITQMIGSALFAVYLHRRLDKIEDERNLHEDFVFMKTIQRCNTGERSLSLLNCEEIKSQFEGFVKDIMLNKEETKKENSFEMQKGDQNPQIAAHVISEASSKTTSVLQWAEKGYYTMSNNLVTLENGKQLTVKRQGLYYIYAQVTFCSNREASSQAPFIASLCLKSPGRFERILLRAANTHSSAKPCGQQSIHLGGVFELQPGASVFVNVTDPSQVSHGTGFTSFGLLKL

[5] = biological target: T4, recombinant human CD40L (rhCD40L-his) (human, UniProt P29965 113-261, limits assumed); experiment: ELISA, CD40L coated at 1 µg/ml
T4 construct: Soluble recombinant form made by the applicant; also called rhCD40L antigen
T4 sequence (looked up): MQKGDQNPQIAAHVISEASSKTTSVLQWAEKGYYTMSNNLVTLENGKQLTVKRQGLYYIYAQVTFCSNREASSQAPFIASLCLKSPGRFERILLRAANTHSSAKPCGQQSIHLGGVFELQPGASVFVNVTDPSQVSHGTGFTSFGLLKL

[6] = biological target: T2, recombinant human TNF-α protein; experiment: BLI (Octet RED), antigen on AR2G biosensor
[7] = biological target: T1, human serum albumin (HSA); experiment: BLI (Octet RED), antigen on AR2G biosensor
[8] = biological target: T4, recombinant human CD40L (rhCD40L-his); experiment: BLI (Octet RED), antigen on AR2G biosensor
[9] = biological target: T4, recombinant human CD40L (rhCD40L-his); experiment: ELISA, recombinant human CD40L coated at 1 µg/ml, HRP goat anti-human Fd detection

T2 sequence (P01375 77-233 limits assumed): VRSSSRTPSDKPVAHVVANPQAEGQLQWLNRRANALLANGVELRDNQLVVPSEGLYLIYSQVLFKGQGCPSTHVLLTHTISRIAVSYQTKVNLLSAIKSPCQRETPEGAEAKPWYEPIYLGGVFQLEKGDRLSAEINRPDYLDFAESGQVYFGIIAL

- EC50 (read off the curve) [1]: ~0.5 nM
- binding result [2]: no binding (tested: 100 nM)
B1: APB-A1, (anti-CD40L hu5c8 scFv)2-anti-HSA SL335 Fab (bispecific antibody)
heavy: DIVLTQSPATLSVSPGERATISCRASQRVSSSTYSYMHWYQQKPGQPPKLLIKYASNLESGVPARFSGSGSGTDFTLTISSVEPEDFATYYCQHSWEIPPTFGGGTKLEIKRGGGGSGGGGSGGGGSQVQLVQSGAEVVKPGASVKLSCKASGYIFTSYYMYWVKQAPGQGLEWIGEINPSNGDTNFNEKFKSKATLTVDKSASTAYMELSSLRSEDTAVYYCTRSDGRNDMDSWGQGTLVTVSSGGGGSGGGGSGGGGSQVQLVQSGGGPVKPGGSLRLSCAASGFMFRAYSMNWVRQAPGKGLEWVSSISSSGRYIHYADSVKGRFTISRDNAKNSLYLQMNSLRAEDTAVYYCARETVMAGKALDYWGQGTLVTVSSASTKGPSVFPLAPSSKSTSEGTAALGCLVKDYFPEPVTVSWNSGALTSGVHTFPAVLQSSGLYSLSSVVTVPSSSLGTQTYICNVNHKPSNTKVDKKVEPKSS
light: DIVLTQSPATLSVSPGERATISCRASQRVSSSTYSYMHWYQQKPGQPPKLLIKYASNLESGVPARFSGSGSGTDFTLTISSVEPEDFATYYCQHSWEIPPTFGGGTKLEIKRGGGGSGGGGSGGGGSQVQLVQSGAEVVKPGASVKLSCKASGYIFTSYYMYWVKQAPGQGLEWIGEINPSNGDTNFNEKFKSKATLTVDKSASTAYMELSSLRSEDTAVYYCTRSDGRNDMDSWGQGTLVTVSSGSTSGSGKPGSGEGSTKGDIVLTQSPGTLSLSPGETATLSCRASQSVGSNLAWYQQKPGQAPRLLIYGASTGATGVPARFSGSRSGTDFTLTITSLQPEDFATYYCQQYYSFLAKTFGQGTQLEIKRTVAAPSVFIFPPSDEQLKSGTASVVCLLNNFYPREAKVQWKVDNALQSGNSQESVTEQDSKDSTYSLSNTLTLSKADYEKHKVYACEVTHQGLSSPVTKSFNRGES
notes: No Fc; also called (anti-hu5c8 scFv)2-SL335; (anti-CD40L scFv)2-anti-HSA Fab

- EC50 (read off the curve) [1]: ~0.3 nM
- binding result [2]: no binding (tested: 100 nM)
B2: SL335 Fab (anti-human serum albumin Fab) (Fab, V domains shown)
VH: QVQLVQSGGGPVKPGGSLRLSCAASGFMFRAYSMNWVRQAPGKGLEWVSSISSSGRYIHYADSVKGRFTISRDNAKNSLYLQMNSLRAEDTAVYYCARETVMAGKALDYWGQGTLVTVSS
VL: DIVLTQSPGTLSLSPGETATLSCRASQSVGSNLAWYQQKPGQAPRLLIYGASTGATGVPARFSGSRSGTDFTLTITSLQPEDFATYYCQQYYSFLAKTFGQGTQLEIKR
notes: also called anti-HSA Fab (SL335)

- IC50, SEAP response of HEK-Blue reporter cells + soluble TNF-α 10 ng/ml (FIG. 22B) [3]: 3.05 nM
- percent inhibition, SEAP response of HEK-Blue reporter cells + D1.1 cells + soluble TNF-α together (FIG. 22C) [3]: 100%
- percent inhibition, SEAP response of HEK-Blue reporter cells + D1.1 cells + soluble TNF-α together (FIG. 22C) [4]: 100%
- fold lower binding capacity than anti-human CD40L IgG1 (ruplizumab) [5]: ~1.5 fold
- Kd [6]: 0.164 nM
- koff [6]: 3.82e-05 s⁻¹
- kon [6]: 230000 M⁻¹ s⁻¹
- Kd [7]: 0.765 nM
- koff [7]: 0.00042 s⁻¹
- kon [7]: 549000 M⁻¹ s⁻¹
- Kd [8]: 0.192 nM
- koff [8]: 0.000113 s⁻¹
- kon [8]: 590000 M⁻¹ s⁻¹
- EC50 (read off the curve) [1]: ~0.5 nM
- EC50 (read off the curve) [9]: ~0.2 nM
- EC50 (read off the curve) [2]: ~1 nM
B3: APB-B1a, (anti-CD40L scFv)2-(anti-HSA SL335 Fab)-(anti-TNF-α Fv) (bispecific antibody)
chain 1: DIVLTQSPATLSVSPGERATISCRASQRVSSSTYSYMHWYQQKPGQPPKLLIKYASNLESGVPARFSGSGSGTDFTLTISSVEPEDFATYYCQHSWEIPPTFGGGTKLEIKRGGGGSGGGGSGGGGSQVQLVQSGAEVVKPGASVKLSCKASGYIFTSYYMYWVKQAPGQGLEWIGEINPSNGDTNFNEKFKSKATLTVDKSASTAYMELSSLRSEDTAVYYCTRSDGRNDMDSWGQGTLVTVSSGGGGSGGGGSGGGGSQVQLVQSGGGPVKPGGSLRLSCAASGFMFRAYSMNWVRQAPGKGLEWVSSISSSGRYIHYADSVKGRFTISRDNAKNSLYLQMNSLRAEDTAVYYCARETVMAGKALDYWGQGTLVTVSSASTKGPSVFPLAPSSKSTSEGTAALGCLVKDYFPEPVTVSWNSGALTSGVHTFPAVLQSSGLYSLSSVVTVPSSSLGTQTYICNVNHKPSNTKVDKKVEPKSSGGGGSGGGGSGGGGSEVQLVESGGGLVQPGGSLRLSCAASGYVFTDYGMNWVRQAPGKGLEWMGWINTYIGEPIYADSVKGRFTFSLDTSKSTAYLQMNSLRAEDTAVYYCARGYRSYAMDYWGQGTLVTVSS
chain 2: DIVLTQSPATLSVSPGERATISCRASQRVSSSTYSYMHWYQQKPGQPPKLLIKYASNLESGVPARFSGSGSGTDFTLTISSVEPEDFATYYCQHSWEIPPTFGGGTKLEIKRGGGGSGGGGSGGGGSQVQLVQSGAEVVKPGASVKLSCKASGYIFTSYYMYWVKQAPGQGLEWIGEINPSNGDTNFNEKFKSKATLTVDKSASTAYMELSSLRSEDTAVYYCTRSDGRNDMDSWGQGTLVTVSSGSTSGSGKPGSGEGSTKGDIVLTQSPGTLSLSPGETATLSCRASQSVGSNLAWYQQKPGQAPRLLIYGASTGATGVPARFSGSRSGTDFTLTITSLQPEDFATYYCQQYYSFLAKTFGQGTQLEIKRTVAAPSVFIFPPSDEQLKSGTASVVCLLNNFYPREAKVQWKVDNALQSGNSQESVTEQDSKDSTYSLSNTLTLSKADYEKHKVYACEVTHQGLSSPVTKSFNRGESGSTSGSGKPGSGEGSTKGDIQMTQSPSSLSASVGDRVTITCKASQNVGTNVAWYQQKPGKAPKALIYSASFLYSGVPYRFSGSGSGTDFTLTISSLQPEDFATYYCQQYNIYPLTFGQGTKVEIKR
- IC50, inhibition of TNF-α mediated cytotoxicity on L929 mouse cells, with HSA (FIG. 21) [3]: 5.3 nM
